Laboratory results reported in the Human Domainome abundance scans (Beltran et al. 2025).
± gives the uncertainty stated by the source.

B1: Double-stranded RNA-binding protein Staufen homolog 1, residues 183 to 249; numbered along this chain, O95793 (parent)
chain: KSEISQVFEIALKRNLPVNFEVARESGPPHMKNFVTKVSVGEFVGEGEGKSKKISKKNAAIAVLEEL

Variants of: B1
Assay: abundance fitness (aPCA) (normalised: wild type 0, dead -1); higher = more abundant; growth selection in yeast, the domain comes from the species named
Details: Homo sapiens
With P29K the abundance fitness was -0.061 ± 0.047.
Work on P29E yielded an abundance fitness of -0.022 ± 0.056.
G49E showed an abundance fitness of -0.74 ± 0.052.
For G49Q, the abundance fitness was -0.741 ± 0.069.
G49T gave an abundance fitness of -0.8 ± 0.065.
Variant G49H has an abundance fitness of -0.53 ± 0.15.
G49D gave an abundance fitness of -0.519 ± 0.064.
With G49F the abundance fitness was -1.14 ± 0.17.
G49P gave an abundance fitness of -0.854 ± 0.08.
Work on G49N yielded an abundance fitness of -0.748 ± 0.11.
For G49C, the abundance fitness was -0.911 ± 0.13.
Variant K1G has an abundance fitness of -0.175 ± 0.044.
For K1E, the abundance fitness was -0.263 ± 0.081.
Work on K1W yielded an abundance fitness of -0.514 ± 0.073.
K1C gave an abundance fitness of -0.177 ± 0.1.
With K1F the abundance fitness was -0.602 ± 0.28.
K1R gave an abundance fitness of -0.178 ± 0.048.
In the case of K1V, the abundance fitness is reported as -0.335 ± 0.054.
In the case of K1N, the abundance fitness is reported as -0.079 ± 0.12.
With K1H the abundance fitness was -0.738 ± 0.2.
With P28E the abundance fitness was -0.153 ± 0.062.
Work on P28S yielded an abundance fitness of -0.089 ± 0.045.
P28D gave an abundance fitness of -0.167 ± 0.096.
With P28I the abundance fitness was -0.322 ± 0.067.
Work on K32M yielded an abundance fitness of -0.178 ± 0.061.
K32L gave an abundance fitness of -0.179 ± 0.044.
Variant K32N has an abundance fitness of -0.192 ± 0.088.
K32W showed an abundance fitness of -0.483 ± 0.083.
With K32Q the abundance fitness was -0.129 ± 0.061.
V40W gave an abundance fitness of -1.3 ± 0.18.
With V40I the abundance fitness was -0.514 ± 0.072.
For V40N, the abundance fitness was -0.617 ± 0.092.
In the case of V40H, the abundance fitness is reported as -0.783 ± 0.14.
With V40S the abundance fitness was -0.703 ± 0.054.
Variant V40K has an abundance fitness of -0.851 ± 0.078.
In the case of V40P, the abundance fitness is reported as -0.442 ± 0.057.
With S2H the abundance fitness was -0.546 ± 0.096.
Variant S2W has an abundance fitness of -0.902 ± 0.16.
Work on S2P yielded an abundance fitness of -0.328 ± 0.051.
S2R gave an abundance fitness of -0.382 ± 0.048.
With S2C the abundance fitness was -0.482 ± 0.11.
In the case of V44E, the abundance fitness is reported as -0.132 ± 0.058.
For V44D, the abundance fitness was -0.238 ± 0.073.
For V44W, the abundance fitness was -0.112 ± 0.049.
In the case of V44K, the abundance fitness is reported as -0.016 ± 0.053.
With V44F the abundance fitness was -0.195 ± 0.15.
V44C showed an abundance fitness of 0.033 ± 0.1.
V44Y gave an abundance fitness of -0.099 ± 0.11.
V44Q gave an abundance fitness of -0.074 ± 0.059.
In the case of N33H, the abundance fitness is reported as 0.016 ± 0.11.
Variant N33V has an abundance fitness of -0.115 ± 0.047.
In the case of N33K, the abundance fitness is reported as -0.011 ± 0.055.
With N33G the abundance fitness was -0.221 ± 0.047.
N33F gave an abundance fitness of -0.29 ± 0.091.
A59G showed an abundance fitness of -0.61 ± 0.036.
A59C gave an abundance fitness of -0.663 ± 0.074.
In the case of A59F, the abundance fitness is reported as -0.911 ± 0.21.
In the case of A59D, the abundance fitness is reported as -0.718 ± 0.086.
Work on A60V yielded an abundance fitness of -0.489 ± 0.044.
A60Y gave an abundance fitness of -0.431 ± 0.072.
For A60N, the abundance fitness was -0.739 ± 0.095.
A60W gave an abundance fitness of -1.02 ± 0.11.
A60Q gave an abundance fitness of -0.741 ± 0.057.
In the case of A60P, the abundance fitness is reported as -0.701 ± 0.064.
Variant A60T has an abundance fitness of -0.466 ± 0.049.
In the case of E25K, the abundance fitness is reported as 0.046 ± 0.055.
In the case of E25M, the abundance fitness is reported as -0.011 ± 0.048.
E25V gave an abundance fitness of -0.025 ± 0.043.
A62C gave an abundance fitness of -0.223 ± 0.099.
For A62L, the abundance fitness was -0.68 ± 0.055.
Variant A62I has an abundance fitness of -0.384 ± 0.1.
A62M gave an abundance fitness of -0.226 ± 0.065.
A62H showed an abundance fitness of -0.242 ± 0.098.
With A62K the abundance fitness was 0.023 ± 0.068.
Variant I61K has an abundance fitness of -0.047 ± 0.057.
For I61H, the abundance fitness was -0.218 ± 0.15.
In the case of I61N, the abundance fitness is reported as -0.181 ± 0.069.
I61P gave an abundance fitness of -0.556 ± 0.065.
In the case of I61S, the abundance fitness is reported as -0.045 ± 0.048.
Variant R24P has an abundance fitness of -0.035 ± 0.051.
For R24N, the abundance fitness was -0.207 ± 0.069.
With R24K the abundance fitness was 0.016 ± 0.049.
Variant R24Q has an abundance fitness of -0.085 ± 0.042.
Variant R24I has an abundance fitness of -0.17 ± 0.09.
